Experimental data reported in US20040018971A1 (published 2004).

Key:
[1] = molecular target: T1, HLA-A*0301 (purified HLA class I molecule) (human); test: competition with 125I-labelled probe peptide for purified HLA-A*0301, gel filtration
T1 construct: also called HLA-A3

[2] = molecular target: HLA-A*0301 (purified HLA class I molecule) (human); test: competition with 125I-labelled probe peptide on purified HLA-A*0301, gel filtration
[3] = molecular target: HLA-B*0702 (human); test: competition with 125I probe peptide, purified HLA
[4] = molecular target: HLA-B*5301 (human); test: competition with 125I probe peptide, purified HLA
[5] = molecular target: HLA-B*5401 (human); test: competition with 125I probe peptide, purified HLA
[6] = molecular target: HLA-B*3501 (human); test: competition with 125I probe peptide, purified HLA
[7] = molecular target: HLA-B*5101 (human); test: competition with 125I probe peptide, purified HLA
[8] = molecular target: HLA-B*3501 (human); test: competition vs 125I-labelled probe peptide, purified HLA, gel filtration
[9] = molecular target: HLA-B*0702 (human); test: as above
[10] = molecular target: HLA-B*5301 (human); test: as above
[11] = molecular target: HLA-B*5101 (human); test: as above
[12] = molecular target: HLA-B*5401 (human); test: as above

Binder: CSPMCKGSR (also called Her2/neu.195 9-mer) [HER2/neu peptide, position 195, 9 amino acids (CSPMCKGSR)]
- relative binding ratio [1]: -0.0008 ratio (IC50 of standard peptide / IC50 of test peptide)

Binder: RILKETELR (Synthetic peptide) [HER2/NEU A03 motif peptide, position 713, 9 amino acids]
- relative binding ratio (IC50 of standard peptide / IC50 of test peptide) [2]: 0.0007 ratio

Binder: TIDVYMIMVK (Synthetic peptide) [HER2/NEU A03 motif peptide, position 948, 10 amino acids]
- relative binding ratio (IC50 of standard peptide / IC50 of test peptide) [2]: 0.013 ratio

Binder: ASPLDSTFY [HER2/neu peptide, position 997, 9 amino acids (ASPLDSTFY)]
- relative binding ratio [1]: 0.0002 ratio (IC50 of standard peptide / IC50 of test peptide)

Binder: CAGGCARCK (also called Her2/neu.220 9-mer) [HER2/neu peptide, position 220, 9 amino acids (CAGGCARCK)]
- relative binding ratio [1]: -0.0002 ratio (IC50 of standard peptide / IC50 of test peptide)

Binder: FPSGVKPDI (analog peptide) [Her2/neu.600.F1I9]
- IC50 [3]: 6.3 nM
- IC50 [4]: 930 nM
- IC50 [5]: 44 nM
- IC50 [6]: 9000 nM
- IC50 [7]: 204 nM

B1: Her2/neu.998.F1I11 (peptide)
peptide: FPLDSTFYRSI
notes: 11-mer analog of the HER2/neu peptide starting at position 998
- IC50 [8]: 2670 nM
- IC50 [9]: 229 nM
- IC50 [10]: 620 nM
- IC50 [11]: 46 nM
- IC50 [12]: 2.4 nM

B2: Her2/neu.998.F1 (peptide)
peptide: FPLDSTFYRSL
notes: as for B1
- IC50 [8]: 400 nM
- IC50 [9]: 42 nM
- IC50 [10]: 1190 nM
- IC50 [11]: 324 nM
- IC50 [12]: 2.7 nM

Binder: CVARCPSGVK (also called Her2/neu.596 10-mer) [HER2/neu peptide, position 596, 10 amino acids (CVARCPSGVK)]
- relative binding ratio [1]: 0.022 ratio (IC50 of standard peptide / IC50 of test peptide)

Binder: ALESILRRR (also called Her2/neu.890 9-mer) [HER2/neu peptide, position 890, 9 amino acids (ALESILRRR)]
- relative binding ratio [1]: 0.0013 ratio (IC50 of standard peptide / IC50 of test peptide)

Binder: MPNPEGRYTI (analog peptide) [Her2/neu.282.I10]
- IC50 [3]: 34 nM
- IC50 [4]: 9.3 nM
- IC50 [5]: 46 nM
- IC50 [6]: 111 nM
- IC50 [7]: 13 nM

Binder: FPNPEGRYTI (analog peptide) [Her2/neu.282.F1]
- IC50 [3]: 324 nM
- IC50 [4]: 6.6 nM
- IC50 [5]: 3.2 nM
- IC50 [6]: 24 nM
- IC50 [7]: 9.3 nM

Binder: RILKETELRK (Synthetic peptide) [HER2/NEU A03 motif peptide, position 713, 10 amino acids]
- relative binding ratio (IC50 of standard peptide / IC50 of test peptide) [2]: 0.057 ratio

B3: Her2/neu.1151.F1I10 (peptide)
peptide: FPREGPLPAI
notes: 10-mer analog of the HER2/neu peptide starting at position 1151
- IC50 [8]: 7200 nM
- IC50 [9]: 20 nM
- IC50 [10]: 620 nM
- IC50 [11]: 20 nM
- IC50 [12]: 3.4 nM

B4: Her2/neu.1073.F1I9 (peptide)
peptide: FPLAPSEGI
notes: 9-mer analog of the HER2/neu peptide starting at position 1073
- IC50 [8]: 554 nM
- IC50 [9]: 100 nM
- IC50 [10]: 239 nM
- IC50 [11]: 204 nM
- IC50 [12]: 5.9 nM

Binder: FPCARVCYGL (analog peptide) [Her2/neu.336.F1]
- IC50 [3]: 190 nM
- IC50 [4]: 1690 nM
- IC50 [5]: 36 nM
- IC50 [6]: 450 nM
- IC50 [7]: 1000 nM

Binder: FPDLSYMPI (analog peptide) [Her2/neu.605.F1]
- IC50 [3]: 22 nM
- IC50 [4]: 72 nM
- IC50 [5]: 31 nM
- IC50 [6]: 167 nM
- IC50 [7]: 10 nM

B5: HER2/NEU A03 motif peptide, position 166, 10 amino acids (peptide)
peptide: TILWKDIFHK
notes: Synthetic peptide; also called Her2/neu.166
- relative binding ratio (IC50 of standard peptide / IC50 of test peptide) [2]: 0.043 ratio

Binder: RLVHRDLAAR (Synthetic peptide) [HER2/NEU A03 motif peptide, position 840, 10 amino acids]
- relative binding ratio (IC50 of standard peptide / IC50 of test peptide) [2]: 0.18 ratio

Binder: FPSETDGYI [Her2/neu.1120.F1I9]
- IC50 [8]: 655 nM
- IC50 [9]: 220 nM
- IC50 [10]: 37 nM
- IC50 [11]: 31 nM
- IC50 [12]: 156 nM

Binder: FPSETDGYV [Her2/neu.1120.F1]
- IC50 [8]: 809 nM
- IC50 [9]: 204 nM
- IC50 [10]: 517 nM
- IC50 [11]: 32 nM
- IC50 [12]: 26 nM

Binder: SVFQNLQVIR (Synthetic peptide) [HER2/NEU A03 motif peptide, position 423, 10 amino acids]
- relative binding ratio (IC50 of standard peptide / IC50 of test peptide) [2]: 0.017 ratio

Binder: RMARDPQRF (Synthetic peptide) [HER2/NEU A03 motif peptide, position 978, 9 amino acids]
- relative binding ratio (IC50 of standard peptide / IC50 of test peptide) [2]: 0.0001 ratio

Binder: CVNCSQFLR (also called Her2/neu.528 9-mer) [HER2/neu peptide, position 528, 9 amino acids (CVNCSQFLR)]
- relative binding ratio [1]: 0.0015 ratio (IC50 of standard peptide / IC50 of test peptide)

Binder: RLLDIDETEY (Synthetic peptide) [HER2/NEU A03 motif peptide, position 868, 10 amino acids]
- relative binding ratio (IC50 of standard peptide / IC50 of test peptide) [2]: 0.0017 ratio

Binder: FPTHDPSPI [Her2/neu.1101.F1I9]
- IC50 [8]: 600 nM
- IC50 [9]: 108 nM
- IC50 [10]: 274 nM
- IC50 [11]: 56 nM
- IC50 [12]: 50 nM
